Test results from US20210324063A1 (KODIAK SCIENCES, published 2021).

Columns and labels:
[1] = biological target: T1, Purified human C1q (human, UniProt P02745 23-245; P02746 28-253; P02747 29-245); test: ELISA: antibody coated on the plate in 1:2 titration, purified human C1q at 5 ug/mL, HRP anti-human C1q detection
T1 construct: also called human complement protein C1q
Experimental: Complement engagement liabilities were assessed by C1q ELISA binding. The antibody panel was titrated 1:2 from a top concentration of 10 ug/mL in 1×PBS for overnight coating at 4 C. Plates were then blocked After a 2 hour blocking step in 1% BSA. Purified human C1q was then applied at 5 ug/mL in 1% BSA for 2 hours at room temperature followed by detection with HRP-conjugated anti-human C1q antibody and TMB development.

[2] = biological target: T2, Histidine-tagged FcγRI (UniProt P12314 16-288, limits assumed); test: SPR (BIAcore T200), his-tagged receptor captured by anti-his antibody on a CM5 chip, antibody as analyte, single-cycle kinetics, 25 C
T2 construct: also called Fc gamma receptor I; not shown: histidine tag
Experimental: (§1) Binding kinetics experiments were performed at 25° C. using a BIAcore T200. An anti-his antibody was immobilized on a CM5 chip. Histidine-tagged FcγRI and FcγRIIIa at a concentration of 0.5 μg/mL prepared in HBS-EP buffer (0.01M HEPES pH7.4, 0.15M NaCl, 3 mM EDTA, 0.005% Tween-20) were injected independently for 60-s using a flow rate of 5 μL/min in the active flow cell only. […] Antibody concentrations in the range of 0.48 to 300 nM were used for FcγRI and 7.8 nM to 2000 nM for FcγRIIIa. Following each run, flow cells were regenerated with a 60 s injection of 10 mM glycine pH 1.7 using a flow-rate of […]. Data was double referenced, using subtraction of both reference flow cell and blank cycles. Analysis was performed using BIA evaluation software.

[3] = biological target: T3, Histidine-tagged FcγRIIIa (UniProt P08637 17-208, limits assumed); test: as above
T3 construct: also called Fc gamma receptor IIIa; not shown: histidine tag
Experimental: as §1

T1 sequence (P02745 23-245 limits assumed, chain 1 of 3): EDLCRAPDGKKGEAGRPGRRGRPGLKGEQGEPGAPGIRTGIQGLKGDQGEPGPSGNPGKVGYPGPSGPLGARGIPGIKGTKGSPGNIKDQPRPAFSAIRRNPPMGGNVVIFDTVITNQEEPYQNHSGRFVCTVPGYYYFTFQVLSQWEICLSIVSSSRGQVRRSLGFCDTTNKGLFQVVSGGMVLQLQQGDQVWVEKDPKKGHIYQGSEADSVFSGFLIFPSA
T1 sequence (P02746 28-253 limits assumed, chain 2 of 3): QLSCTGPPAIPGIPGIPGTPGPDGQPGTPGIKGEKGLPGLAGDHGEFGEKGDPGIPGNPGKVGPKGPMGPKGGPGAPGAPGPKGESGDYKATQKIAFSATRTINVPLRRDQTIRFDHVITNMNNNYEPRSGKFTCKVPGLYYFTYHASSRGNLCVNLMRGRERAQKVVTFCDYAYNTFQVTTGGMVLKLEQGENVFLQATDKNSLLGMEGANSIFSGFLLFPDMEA
T1 sequence (P02747 29-245 limits assumed, chain 3 of 3): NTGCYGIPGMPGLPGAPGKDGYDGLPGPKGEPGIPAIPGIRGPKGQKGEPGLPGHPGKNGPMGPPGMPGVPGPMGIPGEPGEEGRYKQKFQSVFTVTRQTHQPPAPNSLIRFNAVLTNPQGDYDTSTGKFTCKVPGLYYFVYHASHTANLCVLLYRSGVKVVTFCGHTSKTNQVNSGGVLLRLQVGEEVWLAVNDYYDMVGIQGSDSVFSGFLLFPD
T2 sequence (P12314 16-288 limits assumed): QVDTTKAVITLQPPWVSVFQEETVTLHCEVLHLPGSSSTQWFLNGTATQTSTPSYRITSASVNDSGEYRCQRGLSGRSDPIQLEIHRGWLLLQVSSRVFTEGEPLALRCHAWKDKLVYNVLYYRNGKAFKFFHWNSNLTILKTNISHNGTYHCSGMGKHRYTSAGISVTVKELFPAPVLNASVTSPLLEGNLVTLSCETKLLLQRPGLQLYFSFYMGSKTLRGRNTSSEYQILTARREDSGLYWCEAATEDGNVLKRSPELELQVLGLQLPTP
T3 sequence (P08637 17-208 limits assumed): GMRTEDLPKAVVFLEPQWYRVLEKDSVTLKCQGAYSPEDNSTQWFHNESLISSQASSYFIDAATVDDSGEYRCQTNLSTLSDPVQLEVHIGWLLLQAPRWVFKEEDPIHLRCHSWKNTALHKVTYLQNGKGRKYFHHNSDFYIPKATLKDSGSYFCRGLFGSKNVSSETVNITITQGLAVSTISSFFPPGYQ

binding result [1]	binding result [2]	binding result [3]	Binder
binds	no binding (tested: 0.48 to 300 nM)	no binding (tested: 7.8 nM to 2000 nM)	OG1950 (antibody, IgG1, also called anti-VEGF-A antibody with an L443C (EU numbering) mutation; unconjugated antibody) heavy: EVQLVESGGGLVQPGGSLRLSCAASGYDFTHYGMNWVRQAPGKGLEWVGWINTYTGEPTYAADFKRRFTFSLDTSKSTAYLQMNSLRAEDTAVYYCAKYPYYYGTSHWYFDVWGQGTLVTVSSASTKGPSVFPLAPSSKSTSGGTAALGCLVKDYFPEPVTVSWNSGALTSGVHTFPAVLQSSGLYSLSSVVTVPSSSLGTQTYICNVNHKPSNTKVDKKVEPKSCDKTHTCPPCPAPEAAGAPSVFLFPPKPKDTLMISRTPEVTCVVVDVSHEDPEVKFNWYVDGVEVHNAKTKPREEQYNSTYRVVSVLTVLHQDWLNGKEYKCKVSNKALPAPIEKTISKAKGQPREPQVYTLPPSREEMTKNQVSLTCLVKGFYPSDIAVEWESNGQPENNYKTTPPVLDSDGSFFLYSKLTVDKSRWQQGNVFSCSVMHEALHNHYTQKSLSCSPGK light: not shown
binds			Avastin (bevacizumab) (antibody, human IgG1, kappa, Commercial product) heavy: not shown light: not shown
